These results are taken from patent US20260193335A1 (ZOETIS SERVICES, published 2026).

In this test the target is T1, Feline FcRn (complex of FcRn-α subunit and β-microglobulin, C-terminal His tag) (feline, UniProt A0ABI7ZNY9 23-296; Q5MGS7 21-118).
T1 construct: treated here as one molecule
Briefly: SPR Biacore, FcRn on sensor, pH 6; pH 6. How it is done:
As discussed in the above Example section, Feline FcRn was isolated, prepared and mutant Fc IgGs were assayed against feline FcRn according to Strietzelg et. al. Standard RACE PCR was used to amplify feline FcRn-α subunit and β-microglobulin. FcRn-α subunit and β-microglobulin were co-transfected into HEK 293 cells and the FcRn complex was purified by IMAC affinity purification via the c-terminal His tag. KD's were measured by Biacore 3000 or Biacore T200 (GE Healthcare, Pittsburgh, PA, USA) using a CM5 sensor chip.
FcRn was captured on the surface of the sensor using a modified SA capture method. 10 mM MES; 150 mM NaCl; 0.005% Tween20; 0.5 mg/mL BSA; pH6 was used as capture, method running buffer and titrations. 1×HBS-P, 0.5 mg/mL BSA; pH7.4 was also used for method running buffer and titrations. Fc mutant IgGs were flowed over receptor surfaces and affinity was determined using T200 evaluation software or Biacore Insight Evaluation software. Blank runs containing buffer only were subtracted out from all runs. Flow cells were regenerated using 50 mM Tris pH8 or pH9. Runs were performed at 15° C.
On the technique in general: Surface plasmon resonance follows binding to a sensor surface in real time, without labels.

B1: mAb6 anti-TGFβ antibody ZTS-120-7, wildtype (antibody)
heavy: DVQLVESGGDLVKPGGSLRLTCVASGYTFSSNVMHWVRQAPGKGLQWVAYVIPIVDIAYYADSVKGRFTISIDNSKNTLYLQMNSLKTEDTATYYCARTLGLVLDAMDYWGQGTLVTVSSASTTAPSVFPLAPSCGTTSGATVALACLVLGYFPEPVTVSWNSGALTSGVHTFPAVLQASGLYSLSSMVTVPSSRWLSDTFTCNVAHPPSNTKVDKTVRKTDHPPGPKPCDCPKCPPPEMLGGPSIFIFPPKPKDTLSISRTPEVTCLVVDLGPDDSDVQITWFVDNTQVYTAKTSPREEQFNSTYRVVSVLPILHQDWLKGKEFKCKVNSKSLPSPIERTISKAKGQPHEPQVYVLPPAQEELSRNKVSVTCLIKSFHPPDIAVEWEITGQPEPENNYRTTPPQLDSDGTYFVYSKLSVDRSHWQRGNTYTCSVSHEALHSHHTQKSLTQSPGK
light: DIVLTQPPSLSVNLGQTARITCRASQSLGSSYLAWYQQKPGQAPKLVTYGASSRAPGIPDRFSGTNSGITATLTISGARAEDEADYYCQQYADSPITFGQGTKLEIK
notes: also called mAb6 ID No. 24
As a reminder, the Kd is the equilibrium constant for the complex coming apart. Regarding B1, the Kd was 30.2 nM.

B2: mAb6 anti-TGFβ antibody ZTS-120-9, wildtype (antibody)
heavy: DVQLVESGGDLVKPGGSLRLTCVASGYTFSSNVMHWVRQAPGKGLQWVAYVIPIVDIAYYADSVKGRFTISIDNSKNTLYLQMNSLKTEDTATYYCARTLGLVLDAMDYWGQGTLVTVSSASTTAPSVFPLAPSCGTTSGATVALACLVLGYFPEPVTVSWNSGALTSGVHTFPAVLQASGLYSLSSMVTVPSSRWLSDTFTCNVAHPPSNTKVDKTVRKTDHPPGPKPCDCPKCPPPEMLGGPSIFIFPPKPKDTLSISRTPEVTCLVVDLGPDDSDVQITWFVDNTQVYTAKTSPREEQFNSTYRVVSVLPILHQDWLKGKEFKCKVNSKSLPSPIERTISKAKGQPHEPQVYVLPPAQEELSRNKVSVTCLIKSFHPPDIAVEWEITGQPEPENNYRTTPPQLDSDGTYFVYSKLSVDRSHWQRGNTYTCSVSHEALHSHHTQKSLTQSPGK
light: DIVMTQSPGSLAGSPGQQVTMNCRASQSLGSSYLAWYQQKPGQHPELLIYGASSRAPGVPDRFSGSGSGTDFTLTISNLQAEDVANYYCQQYADSPITFGQGTKLEIK
notes: also called mAb6 ID No. 28
For B2, the affinity, expressed as Kd, was 44.3 nM.

B3: mAb6 anti-TGFβ antibody ZTS-120-2, wildtype (antibody)
heavy: QVLLVQSGADVRKPGASVKIFCKASGYTFTSNVISWVRQTPAQGFEWMGGVIPIVDIANYAQRFKGRLVLTADTSTNTAYMELRSLKSADTAVYYCASTLGLVLDAMDYWGQGSLVTVSSASTTAPSVFPLAPSCGTTSGATVALACLVLGYFPEPVTVSWNSGALTSGVHTFPAVLQASGLYSLSSMVTVPSSRWLSDTFTCNVAHPPSNTKVDKTVRKTDHPPGPKPCDCPKCPPPEMLGGPSIFIFPPKPKDTLSISRTPEVTCLVVDLGPDDSDVQITWFVDNTQVYTAKTSPREEQFNSTYRVVSVLPILHQDWLKGKEFKCKVNSKSLPSPIERTISKAKGQPHEPQVYVLPPAQEELSRNKVSVTCLIKSFHPPDIAVEWEITGQPEPENNYRTTPPQLDSDGTYFVYSKLSVDRSHWQRGNTYTCSVSHEALHSHHTQKSLTQSPGK
light: EIQMTQSPSSLSASPGDRVTITCRASQSLGSSYLAWYQQKPGKVPKLLIYGASSRAPGVPSRFSGSGSGTDFTLTISSLEPEDAATYYCQQYADSPITFGQGTKLEIK
notes: also called mAb6 ID No. 14
On to B3, for which binding was characterised by a dissociation constant (Kd) of 22.3 nM.

B4: mAb6 anti-TGFβ antibody ZTS-120-5, wildtype (antibody)
heavy: DVQLVESGGDLVKPGGSLRLTCVASGYTFSSNVMHWVRQAPGKGLQWVAYVIPIVDIAYYADSVKGRFTISIDNSKNTLYLQMNSLKTEDTATYYCARTLGLVLDAMDYWGQGTLVTVSSASTTAPSVFPLAPSCGTTSGATVALACLVLGYFPEPVTVSWNSGALTSGVHTFPAVLQASGLYSLSSMVTVPSSRWLSDTFTCNVAHPPSNTKVDKTVRKTDHPPGPKPCDCPKCPPPEMLGGPSIFIFPPKPKDTLSISRTPEVTCLVVDLGPDDSDVQITWFVDNTQVYTAKTSPREEQFNSTYRVVSVLPILHQDWLKGKEFKCKVNSKSLPSPIERTISKAKGQPHEPQVYVLPPAQEELSRNKVSVTCLIKSFHPPDIAVEWEITGQPEPENNYRTTPPQLDSDGTYFVYSKLSVDRSHWQRGNTYTCSVSHEALHSHHTQKSLTQSPGK
light: EIQMTQSPSSLSASPGDRVTITCRASQSLGSSYLAWYQQKPGKVPKLLIYGASSRAPGVPSRFSGSGSGTDFTLTISSLEPEDAATYYCQQYADSPITFGQGTKLEIK
notes: also called mAb6 ID No. 20
As to B4, the Kd was determined as 31.6 nM.

B5: mAb6 anti-TGFβ antibody ZTS-120-6, wildtype (antibody)
heavy: QVLLVQSGADVRKPGASVKIFCKASGYTFSSNVMHWVRQTPAQGFEWMGSVIPIVDIATYARRFQGRLVLTADTSTNTAYMELRSLKSADTAVYYCARTLGLVLDAMDYWGQGSLVTVSSASTTAPSVFPLAPSCGTTSGATVALACLVLGYFPEPVTVSWNSGALTSGVHTFPAVLQASGLYSLSSMVTVPSSRWLSDTFTCNVAHPPSNTKVDKTVRKTDHPPGPKPCDCPKCPPPEMLGGPSIFIFPPKPKDTLSISRTPEVTCLVVDLGPDDSDVQITWFVDNTQVYTAKTSPREEQFNSTYRVVSVLPILHQDWLKGKEFKCKVNSKSLPSPIERTISKAKGQPHEPQVYVLPPAQEELSRNKVSVTCLIKSFHPPDIAVEWEITGQPEPENNYRTTPPQLDSDGTYFVYSKLSVDRSHWQRGNTYTCSVSHEALHSHHTQKSLTQSPGK
light: DIVLTQPPSLSVNLGQTARITCRASQSLGSSYLAWYQQKPGQAPKLVTYGASSRAPGIPDRFSGTNSGITATLTISGARAEDEADYYCQQYADSPITFGQGTKLEIK
notes: also called mAb6 ID No. 22
With B5, the affinity, expressed as Kd, was 14.3 nM.

B6: mAb6 anti-TGFβ antibody ZTS-120-8, wildtype (antibody)
heavy: QVLLVQSGADVRKPGASVKIFCKASGYTFTSNVISWVRQTPAQGFEWMGGVIPIVDIANYAQRFKGRLVLTADTSTNTAYMELRSLKSADTAVYYCASTLGLVLDAMDYWGQGSLVTVSSASTTAPSVFPLAPSCGTTSGATVALACLVLGYFPEPVTVSWNSGALTSGVHTFPAVLQASGLYSLSSMVTVPSSRWLSDTFTCNVAHPPSNTKVDKTVRKTDHPPGPKPCDCPKCPPPEMLGGPSIFIFPPKPKDTLSISRTPEVTCLVVDLGPDDSDVQITWFVDNTQVYTAKTSPREEQFNSTYRVVSVLPILHQDWLKGKEFKCKVNSKSLPSPIERTISKAKGQPHEPQVYVLPPAQEELSRNKVSVTCLIKSFHPPDIAVEWEITGQPEPENNYRTTPPQLDSDGTYFVYSKLSVDRSHWQRGNTYTCSVSHEALHSHHTQKSLTQSPGK
light: DIVMTQSPGSLAGSPGQQVTMNCRASQSLGSSYLAWYQQKPGQHPELLIYGASSRAPGVPDRFSGSGSGTDFTLTISNLQAEDVANYYCQQYADSPITFGQGTKLEIK
notes: also called mAb6 ID No. 26
The molecule B6 gave a Kd of 35.7 nM.

B7: mAb6 anti-TGFβ antibody ZTS-120-4, wildtype (antibody)
heavy: QVLLVQSGADVRKPGASVKIFCKASGYTFSSNVMHWVRQTPAQGFEWMGSVIPIVDIATYARRFQGRLVLTADTSTNTAYMELRSLKSADTAVYYCARTLGLVLDAMDYWGQGSLVTVSSASTTAPSVFPLAPSCGTTSGATVALACLVLGYFPEPVTVSWNSGALTSGVHTFPAVLQASGLYSLSSMVTVPSSRWLSDTFTCNVAHPPSNTKVDKTVRKTDHPPGPKPCDCPKCPPPEMLGGPSIFIFPPKPKDTLSISRTPEVTCLVVDLGPDDSDVQITWFVDNTQVYTAKTSPREEQFNSTYRVVSVLPILHQDWLKGKEFKCKVNSKSLPSPIERTISKAKGQPHEPQVYVLPPAQEELSRNKVSVTCLIKSFHPPDIAVEWEITGQPEPENNYRTTPPQLDSDGTYFVYSKLSVDRSHWQRGNTYTCSVSHEALHSHHTQKSLTQSPGK
light: EIQMTQSPSSLSASPGDRVTITCRASQSLGSSYLAWYQQKPGKVPKLLIYGASSRAPGVPSRFSGSGSGTDFTLTISSLEPEDAATYYCQQYADSPITFGQGTKLEIK
notes: also called mAb6 ID No. 18
B7 returned a Kd of 19.6 nM.

B8: mAb6 anti-TGFβ antibody ZTS-120-3, wildtype (antibody)
heavy: QVLLVQSGAEVRTPGASVKIFCKASGYGFTSNVISWVRQSPAQGLEWMGGVIPIVDIANYAQRFKGRLTLTADTSTDTAYMELSSLRSADTAMYYCASTLGLVLDAMDYWGQGTLVTVSSASTTAPSVFPLAPSCGTTSGATVALACLVLGYFPEPVTVSWNSGALTSGVHTFPAVLQASGLYSLSSMVTVPSSRWLSDTFTCNVAHPPSNTKVDKTVRKTDHPPGPKPCDCPKCPPPEMLGGPSIFIFPPKPKDTLSISRTPEVTCLVVDLGPDDSDVQITWFVDNTQVYTAKTSPREEQFNSTYRVVSVLPILHQDWLKGKEFKCKVNSKSLPSPIERTISKAKGQPHEPQVYVLPPAQEELSRNKVSVTCLIKSFHPPDIAVEWEITGQPEPENNYRTTPPQLDSDGTYFVYSKLSVDRSHWQRGNTYTCSVSHEALHSHHTQKSLTQSPGK
light: EIQMTQSPSSLSASPGDRVTITCRASQSLGSSYLAWYQQKPGKVPKLLIYGASSRAPGVPSRFSGSGSGTDFTLTISSLEPEDAATYYCQQYADSPITFGQGTKLEIK
notes: also called mAb6 ID No. 16
Regarding B8, the Kd turned out to be 20.5 nM.
